T1: carcinoembryonic antigen (CEA) on MKN-45 cells (human, UniProt P06731 35-685)
T1 construct: whole, on cells; also called CEACAM5; Carcinoembryonic antigen-related cell adhesion molecule 5
T1 sequence (looked up): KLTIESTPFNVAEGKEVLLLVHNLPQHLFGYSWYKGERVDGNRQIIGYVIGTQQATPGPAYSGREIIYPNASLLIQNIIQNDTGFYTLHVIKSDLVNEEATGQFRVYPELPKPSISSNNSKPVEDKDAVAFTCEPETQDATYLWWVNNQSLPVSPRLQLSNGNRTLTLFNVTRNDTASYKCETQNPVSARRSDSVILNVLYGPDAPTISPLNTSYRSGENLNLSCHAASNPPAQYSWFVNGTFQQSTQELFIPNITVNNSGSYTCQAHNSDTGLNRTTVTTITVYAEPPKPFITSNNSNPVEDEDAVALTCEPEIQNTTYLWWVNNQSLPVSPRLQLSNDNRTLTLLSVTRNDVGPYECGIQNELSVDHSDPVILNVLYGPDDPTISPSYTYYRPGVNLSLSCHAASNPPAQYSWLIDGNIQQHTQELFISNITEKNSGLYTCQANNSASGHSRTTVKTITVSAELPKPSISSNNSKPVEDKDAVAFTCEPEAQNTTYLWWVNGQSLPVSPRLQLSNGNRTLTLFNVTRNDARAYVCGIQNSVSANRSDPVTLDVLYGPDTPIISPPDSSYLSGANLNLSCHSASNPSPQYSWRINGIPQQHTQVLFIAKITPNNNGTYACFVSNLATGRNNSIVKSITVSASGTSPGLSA


Columns and labels:
[1] = molecular target: T1, carcinoembryonic antigen (CEA) on …; assay: flow cytometry on MKN45 cells, hemibody mixed 1:1 with human ISO control, detection with anti-human IgG(H+L) (title: A488; legend box: FITC)
Procedure: To assess the functionality of the split antibodies or hemibodies, MKN-45 cells were detached from the culture vessel using accutase at 37° C. for 10 minutes. Subsequently, the cells were washed twice in PBS, and seeded into 96 well v-bottom plates to a final density of 4×10⁶ cells/well.
Subsequently, the cells were incubated for 1 h on ice and washed twice in PBS. The cell pellet was resuspended and 40 μl/well of detection reagent was added, either <human IgG(H+L)>FITC, (10 μg/ml) or Pb_Dotam_FITC 1:100=>(10 μg/ml) in PBS/5% FCS. After 60 min incubation on ice, the cells were washed twice in PBS and resuspended in 200 μl PBS/5% FCS for measurement of FITC fluorescence using a FACS canto.

[2] = molecular target: T1, carcinoembryonic antigen (CEA) on …; assay: flow cytometry on MKN-45 cells, detection with anti-huIgG(H+L)-Alexa488
Procedure: MKN-45 cells were detached from the culture bottle using Trypsin and were counted using a Casy cell counter. After pelleting at 4° C., 300 g the cells were resuspended in FACS Buffer (2.5% FCS in PBS), adjusted to 2.0E+06 cells/mL dispensed to 96-well PP V-bottom-Platte (25 μL/well=5.0E+04 Zellen/well).
The CEA specific SPLIT antibodies (P1AF0712 or P1AF0713 respectively) were adjusted to 40 μg/mL in FACS buffer, resulting in a final concentration of 10 μg/mL. […] The cells were then washed twice in FACS buffer and resuspended in 70 μl/well FACS buffer for measurement using a FACS Canto (BD, Pharmingen). […] Both antibodies were added to the cells either separated followed by buffer or combined and incubated at 4° C. for 1 h. The cells were then washed twice in FACS buffer. After washing, the cells were resuspended in 50 μL FACS-buffer containing secondary antibody (<huIgG(H+L)>-Alexa488, c=10 μg/mL) and incubated 1 h at 4° C.

EC50 (read off the curve) [1]	EC50 [2]	Binder
~1 µg/mL		PRIT Split Antibody with DOTAM-VH-P1AD8749 (antibody, human IgG1, kappa, L234A L235A, Full length anti-CEA (CH1A1A) human IgG1 with knob-into-hole and P329G LALA; one heavy chain carries the DOTAM VH at its C-terminus; No DOTAM VL; Bivalent for CEA; also called CEA-split-DOTAM-VH; P1_B) heavy 1: QVQLVQSGAEVKKPGASVKVSCKASGYTFTEFGMNWVRQAPGQGLEWMGWINTKTGEATYVEEFKGRVTFTTDTSTSTAYMELRSLRSDDTAVYYCARWDFAYYVEAMDYWGQGTTVTVSSASTKGPSVFPLAPSSKSTSGGTAALGCLVKDYFPEPVTVSWNSGALTSGVHTFPAVLQSSGLYSLSSVVTVPSSSLGTQTYICNVNHKPSNTKVDKKVEPKSCDKTHTCPPCPAPEAAGGPSVFLFPPKPKDTLMISRTPEVTCVVVDVSHEDPEVKFNWYVDGVEVHNAKTKPREEQYNSTYRVVSVLTVLHQDWLNGKEYKCKVSNKALGAPIEKTISKAKGQPREPQVCTLPPSRDELTKNQVSLSCAVKGFYPSDIAVEWESNGQPENNYKTTPPVLDSDGSFFLVSKLTVDKSRWQQGNVFSCSVMHEALHNHYTQKSLSLSPG heavy 2: not shown light: DIQMTQSPSSLSASVGDRVTITCKASAAVGTYVAWYQQKPGKAPKLLIYSASYRKRGVPSRFSGSGSGTDFTLTISSLQPEDFATYYCHQYYTYPLFTFGQGTKLEIKRTVAAPSVFIFPPSDEQLKSGTASVVCLLNNFYPREAKVQWKVDNALQSGNSQESVTEQDSKDSTYSLSSTLTLSKADYEKHKVYACEVTHQGLSSPVTKSFNRGEC
	2.7 µg/mL	P1AF0712 (antibody, human IgG1, kappa, L234A L235A, also called CEA specific SPLIT antibody (DOTA-VL); P6_A) heavy 1: not shown heavy 2: QVQLVQSGAEVKKPGASVKVSCKASGYTFTEFGMNWVRQAPGQGLEWMGWINTKTGEATYVEEFKGRVTFTTDTSTSTAYMELRSLRSDDTAVYYCARWDFAYYVEAMDYWGQGTTVTVSSASTKGPSVFPLAPSSKSTSGGTAALGCLVKDYFPEPVTVSWNSGALTSGVHTFPAVLQSSGLYSLSSVVTVPSSSLGTQTYICNVNHKPSNTKVDKKVEPKSCDKTHTCPPCPAPEAAGGPSVFLFPPKPKDTLMISRTPEVTCVVVDVSHEDPEVKFNWYVDGVEVHNAKTKPREEQYNSTYRVVSVLTVLHQDWLNGKEYKCKVSNKALGAPIEKTISKAKGQPREPQVCTLPPSRDELTKNQVSLSCAVKGFYPSDIAVEWESNGQPENNYKTTPPVLDSDGSFFLVSKLTVDKSRWQQGNVFSCSVMHEALHNHYTQKSLSLSPGGGGGSGGGGSGGGGSGGGGSQAVVIQESALTTPPGETVTLTCGSSTGAVTASNYANWVQEKPDHLFTGLIGGHNNRPPGVPARFSGSLIGDKAALTIAGTQTEDEAIYFCALWYSDHWVIGGGTKLTVL light: DIQMTQSPSSLSASVGDRVTITCKASAAVGTYVAWYQQKPGKAPKLLIYSASYRKRGVPSRFSGSGSGTDFTLTISSLQPEDFATYYCHQYYTYPLFTFGQGTKLEIKRTVAAPSVFIFPPSDEQLKSGTASVVCLLNNFYPREAKVQWKVDNALQSGNSQESVTEQDSKDSTYSLSSTLTLSKADYEKHKVYACEVTHQGLSSPVTKSFNRGEC
	2.3 µg/mL	P1AF0713 (antibody, human IgG1, kappa, L234A L235A, also called CEA specific SPLIT antibody (DOTA-VH-AST); P6_B) heavy 1: QVQLVQSGAEVKKPGASVKVSCKASGYTFTEFGMNWVRQAPGQGLEWMGWINTKTGEATYVEEFKGRVTFTTDTSTSTAYMELRSLRSDDTAVYYCARWDFAYYVEAMDYWGQGTTVTVSSASTKGPSVFPLAPSSKSTSGGTAALGCLVKDYFPEPVTVSWNSGALTSGVHTFPAVLQSSGLYSLSSVVTVPSSSLGTQTYICNVNHKPSNTKVDKKVEPKSCDKTHTCPPCPAPEAAGGPSVFLFPPKPKDTLMISRTPEVTCVVVDVSHEDPEVKFNWYVDGVEVHNAKTKPREEQYNSTYRVVSVLTVLHQDWLNGKEYKCKVSNKALGAPIEKTISKAKGQPREPQVCTLPPSRDELTKNQVSLSCAVKGFYPSDIAVEWESNGQPENNYKTTPPVLDSDGSFFLVSKLTVDKSRWQQGNVFSCSVMHEALHNHYTQKSLSLSPG heavy 2: not shown light: DIQMTQSPSSLSASVGDRVTITCKASAAVGTYVAWYQQKPGKAPKLLIYSASYRKRGVPSRFSGSGSGTDFTLTISSLQPEDFATYYCHQYYTYPLFTFGQGTKLEIKRTVAAPSVFIFPPSDEQLKSGTASVVCLLNNFYPREAKVQWKVDNALQSGNSQESVTEQDSKDSTYSLSSTLTLSKADYEKHKVYACEVTHQGLSSPVTKSFNRGEC

Reference: US20220267463A1 (Hoffmann-La Roche, published 2022)
